Data as given in publication PMC11960969, “Mdga2 deficiency leads to an aberrant activation of BDNF/TrkB signaling that underlies autism-relevant synaptic and behavioral changes in mice” (PLOS Biology, 2025).

Legend:
[1] = tested on: TrkB; experiment: Co-IP of MDGA2, V930I or ΔMAM with TrkB in mouse primary neurons; format: binding; conditions: n = 4, Fig 7E
Description: (§1) Fig 7 The autism spectrum disorder (ASD)-associated MDGA2 V930I mutation impairs the MDGA2-TrkB interaction and MDGA2’s inhibitory effect on the tyrosine kinase B (TrkB) signaling. (A) Schematic depiction of the WT human MDGA2 and its V930I mutation constructs that are tagged with GFP. (B, C) HeLa cells (B) and mouse primary neurons (C) transfected with MDGA2 (green) or V930I (green) were immunostained with an antibody against the plasma membrane protein ATP1A1 (red) and then observed by confocal microscopy. Scale bars = 10 μm. (D) Cell surface expression of WT MDGA2 or V930I in transfected HeLa cells was determined by surface biotinylation assays. Biotinylated (cell surface) protein levels were quantified by densitometry and normalized to total protein levels for comparison (WT MDGA2 levels were set to one arbitrary unit). n = 4 experimental replicates. (E) Mouse primary neurons were transfected with MDGA2, V930I, or ΔMAM. […] Immunoprecipitated protein levels were quantified by densitometry, normalized to respective inputs, and compared to those transfected with MDGA2 (set to one arbitrary units). n = 4 experimental replicates. […] Levels of phosphorylated proteins were quantified by densitometry, normalized to respective total protein levels and compared to controls (set to one arbitrary units). n = 6 experimental replicates. […]

[2] = tested on: cell membrane localization in HeLa cells and mouse primary neurons; experiment: Immunostaining of membrane localization of MDGA2, ΔMAM or V930I in transfected cells; format: cell-based; conditions: HeLa cells and mouse primary neurons, Fig 7B, 7C
Description: as §1

[3] = tested on: TrkB signaling (pTrkB, pAkt, pmTOR); experiment: Immunoblotting of TrkB/Akt/mTOR phosphorylation in primary neurons transfected with MDGA2, ΔMAM or V930I; format: cell-based, mouse; conditions: Mdga2-/- neurons, n = 6, Fig 7F
Procedure: Fig 3 MDGA2 interacts with TrkB and suppresses TrkB activity. (A) Primary hippocampal neurons derived from Mdga2^ +/− (Het) mice and their wild-type (WT) littermates at DIV 7 were treated with different doses of BDNF for 30 min. Equal amounts of protein lysates were subjected to immunoprecipitation (IP) with an anti-TrkB antibody, followed by immunoblotting with an anti-phosphotyrosine (pTyr) antibody or the anti-TrkB antibody. The pTyr levels were quantified by densitometry, normalized to total TrkB levels, and then compared to those of WT controls. n = 3 per group. (B) WT mouse brain lysates were subjected to IP with an anti-MDGA2 antibody and a control IgG, and immunoblotted (IB) for the components indicated. mBDNF, mature BDNF; ImBDNF, immature BDNF. (C) Hippocampal neurons from WT mice at DIV 7 were immunostained with antibodies against MDGA2 (red) and TrkB (green), and then counter-stained with DAPI (blue). Images were acquired by a confocal microscope. Scale bar: 10 μm. (D) Surface plasmon resonance (SPR) analysis of the binding between recombinant MDGA2 protein and recombinant TrkB protein. TrkB was immobilized on a Biacore CM5 chip and tested for its binding with MDGA2 at the concentrations indicated. (E) Computer simulation of the binding mode of TrkB and MDGA2. The predicted binding domain of TrkB (the d5 domain) is highlighted by a red square and labeled in brown. The predicted binding domain of MDGA2 (the MAM domain) is highlighted by a red square and labeled in yellow. (F) HEK293T cells were co-transfected with TrkB-Flag and GFP-tagged full-length MDGA2 (MDGA2-GFP) or an MDGA2 deletion fragment lacking the entire MAM domain (ΔMAM-GFP). Cell lysates were subjected to IP with control IgG and antibodies against Flag or GFP, and immunoblotted for the components indicated. […] The scheme of MDGA2-ΔMAM is also shown. (G) HeLa cells were co-transfected with TrkB that is tagged with the N-terminal Venus fragment (TrkB-VN) and full-length MDGA2 or MDGA2-ΔMAM that are tagged with the C-terminal Venus fragment (MDGA2-VC or ΔMAM-VC) for 24 h. After immunostaining with antibodies against MDGA2/MDGA2-ΔMAM (pink) and TrkB (red), cells were observed by confocal microscopy. Venus signal (green) indicates the interaction between MDGA2 and TrkB. Schematic diagrams depicting the BiFC assay are also shown. Scale bars: 10 μm. (H, I) Equal amounts of protein lysates from primary neurons derived from Het, KO, and their WT littermate mice (H), and from WT primary neurons transfected with GFP control, MDGA2-GFP or ΔMAM-GFP (I) were subjected to IP with IgG and an anti-BDNF antibody, and then immunoblotted for the components indicated. Immunoprecipitated TrkB levels were quantified by densitometry, normalized to input levels, and compared to respective controls (set to one arbitrary units). n = 3 per group. (J) Neurons derived from KO mice were transfected with GFP control (Ctrl), MDGA2-GFP, or MDGA2-ΔMAM-GFP, and neurons derived from their WT littermates were transfected with GFP control (Ctrl). Equal amounts of protein lysates were subjected to immunoblotting for the proteins indicated. Levels of phosphorylated proteins were quantified by densitometry, normalized to respective total protein levels and compared to controls (set to one arbitrary units). n = 6 per group. Data represent mean ± SEM. P-values were determined by two-tailed unpaired Student t-test in (A) and one-way ANOVA with Tukey’s multiple comparisons test in (H, I, J). *p < 0.05, **p < 0.01, ***p < 0.001, ns: not significant. The data underlying this figure can be found in S1 Data, specifically in the sheet labeled “Figure 3”.
Fig 7 The autism spectrum disorder (ASD)-associated MDGA2 V930I mutation impairs the MDGA2-TrkB interaction and MDGA2’s inhibitory effect on the tyrosine kinase B (TrkB) signaling. (A) Schematic depiction of the WT human MDGA2 and its V930I mutation constructs that are tagged with GFP. […]

[4] = tested on: HeLa cells; experiment: Cell surface biotinylation of MDGA2 or V930I in transfected HeLa cells; format: cell-based; conditions: n = 4, Fig 7D
Description: as §1

B1: MDGA2-V930I: MDGA2 with ASD-associated missense mutation V930I, GFP-tagged (protein)
chain: PPTVRIVHSGLACNIEEERYSERVYTIREGETLELTCLVTGHPRPQIRWTKTAGSASDRFQDSSVFNETLRITNIQRHQGGRYYCKAENGLGSPAIKSIRVDVYYLDDPVVTVHQSIGEAKEQFYYERTVFLRCVANSNPPVRYSWRRGQEVLLQGSDKGVEIYEPFFTQGETKILKLKNLRPQDYANYSCIASVRNVCNIPDKMVSFRLSNKTASPSIKLLVDDPIVVNPGEAITLVCVTTGGEPAPSLTWVRSFGTLPEKTVLNGGTLTIPAITSDDAGTYSCIANNNVGNPAKKSTNIIVRALKKGRFWITPDPYHKDDNIQIGREVKISCQVEAVPSEELTFSWFKNGRPLRSSERMVITQTDPDVSPGTTNLDIIDLKFTDFGTYTCVASLKGGGISDISIDVNISSSTVPPNLTVPQEKSPLVTREGDTIELQCQVTGKPKPIILWSRADKEVAMPDGSMQMESYDGTLRIVNVSREMSGMYRCQTSQYNGFNVKPREALVQLIVQYPPAVEPAFLEIRQGQDRSVTMSCRVLRAYPIRVLTYEWRLGNKLLRTGQFDSQEYTEYAVKSLSNENYGVYNCSIINEAGAGRCSFLVTGKAYAPEFYYDTYNPVWQNRHRVYSYSLQWTQMNPDAVDRIVAYRLGIRQAGQQRWWEQEIKINGNIQKGELITYNLTELIKPEAYEVRLTPLTKFGEGDSTIRVIKYSAPVNPHLREFHCGFEDGNICLFTQDDTDNFDWTKQSTATRNTKYTPNTGPNADRSGSKEGFYMYIETSRPRLEGEKARLLSPVFSIAPKNPYGPTNTAYCFSFFYHMYGQHIGVLNVYLRLKGQTTIENPLWSSSGNKGQRWNEAHVNIYPITSFQLIFEGIRGPGIEGDIAIDDVSIAEGECAKQDLATKNSID
modifications: left off: GFP, end not stated, kept
notes: MDGA2 with ASD-associated missense mutation V930I, GFP-tagged
interaction with TrkB (IP) vs WT MDGA2 [1]: significantly decreased compared to that of WT MDGA2
cell surface distribution (immunostaining) [2]: cell surface distribution was much less than that of WT MDGA2
aberrant activation of TrkB/Akt signaling upon re-expression [3]: did not inhibit the aberrant activation of the TrkB/Akt signaling as WT MDGA2 did
cell surface levels (biotinylation) [4]: significantly lower than those of WT MDGA2
